Reference: patent CN114652851A (STONE BIOPHARMACEUTICAL CO LTD, dated 2022)

Target: T1, Human TROP2蛋白 (human, UniProt P09758 27-274, limits assumed)
T1 construct: also called 人TROP2
T1 sequence (looked up): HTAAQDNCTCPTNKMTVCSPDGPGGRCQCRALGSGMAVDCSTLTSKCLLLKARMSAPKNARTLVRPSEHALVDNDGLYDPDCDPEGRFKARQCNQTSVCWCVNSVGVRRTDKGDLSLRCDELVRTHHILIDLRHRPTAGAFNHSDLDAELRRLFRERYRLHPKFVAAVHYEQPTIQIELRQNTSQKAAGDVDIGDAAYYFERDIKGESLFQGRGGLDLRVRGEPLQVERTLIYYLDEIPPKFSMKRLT
Assay: ELISA, TROP2 protein incubated with antibody dilutions, goat anti-human IgG (H+L) secondary antibody

B1: SY02人源化抗体 (人源化抗TROP2抗体SY02) (antibody, human IgG1, kappa, V domains shown)
VH: QVQLVQSGAEVKKPGSSVKVSCKASGYTFTDYSINWVRQAPGQGLEWMGVISTYYGDASYNQKFKGRVTITADESTSTAYMELSSLRSEDTAVYYCARYGDGYNQFDYWGQGTLVTVSS
VL: DIQMTQSPSSLSASVGDRVTITCRVSESVDSYGNNFMHWYQQKPGKAPKLLIYRASNLESGVPSRFSGSGSGTDFTFTISSLQPEDIATYYCQQSYEDPYTFGGGTKLEIKR
notes: also called 裸抗SY02
binding result: binds
